Data as given in patent publication US20100166808A1, “Method of Facilitating Intracellular Uptake or Transcellular Transport of Cargo Using Nanocarriers Containing Optimal Surface Densities of Integrin-Specific Ligands” (priority 2008, published 2010).

Legend:
Assay in all cases: Selectivity for human integrin receptors: phage binding to plate-coated purified integrin
Conditions in all cases: FIG. 1; purified integrin coated at 1 μg/mL; phage-displayed ligand, detection at 450 nm
[1] = molecular target: T1, human α5β1 integrin receptor (Homo sapiens, UniProt P05556+P08648)
T1 construct: purchased Chemicon, Temecula, Calif
T1 sequence (P08648 42-894 limits assumed): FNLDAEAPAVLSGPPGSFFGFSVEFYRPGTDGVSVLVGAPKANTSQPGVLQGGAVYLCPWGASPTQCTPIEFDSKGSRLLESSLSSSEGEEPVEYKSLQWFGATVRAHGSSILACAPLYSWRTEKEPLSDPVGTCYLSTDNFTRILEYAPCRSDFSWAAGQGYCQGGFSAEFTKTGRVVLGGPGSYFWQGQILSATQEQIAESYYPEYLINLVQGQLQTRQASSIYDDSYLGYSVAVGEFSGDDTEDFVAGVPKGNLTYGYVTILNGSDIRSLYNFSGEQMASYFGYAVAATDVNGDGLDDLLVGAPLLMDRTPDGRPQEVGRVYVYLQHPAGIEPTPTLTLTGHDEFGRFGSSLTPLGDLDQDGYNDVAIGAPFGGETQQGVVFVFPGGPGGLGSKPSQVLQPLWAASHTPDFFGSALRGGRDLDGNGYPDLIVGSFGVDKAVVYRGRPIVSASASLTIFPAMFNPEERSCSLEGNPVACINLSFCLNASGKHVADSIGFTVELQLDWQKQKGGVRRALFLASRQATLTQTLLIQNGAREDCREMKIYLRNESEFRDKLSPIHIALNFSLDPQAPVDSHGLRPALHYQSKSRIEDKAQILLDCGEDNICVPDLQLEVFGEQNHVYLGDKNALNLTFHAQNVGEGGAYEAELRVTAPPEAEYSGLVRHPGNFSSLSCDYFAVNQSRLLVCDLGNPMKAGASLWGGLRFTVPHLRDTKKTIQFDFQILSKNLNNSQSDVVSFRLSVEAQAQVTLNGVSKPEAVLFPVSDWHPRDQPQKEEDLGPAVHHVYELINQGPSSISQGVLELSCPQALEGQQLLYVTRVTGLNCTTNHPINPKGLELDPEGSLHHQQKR
T1 sequence (P08648 895-1049 partner limits assumed): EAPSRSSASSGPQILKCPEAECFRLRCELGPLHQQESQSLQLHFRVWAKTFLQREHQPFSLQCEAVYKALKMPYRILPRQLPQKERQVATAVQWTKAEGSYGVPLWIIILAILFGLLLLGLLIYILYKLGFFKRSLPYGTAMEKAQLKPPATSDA
T1 sequence (P05556 21-798): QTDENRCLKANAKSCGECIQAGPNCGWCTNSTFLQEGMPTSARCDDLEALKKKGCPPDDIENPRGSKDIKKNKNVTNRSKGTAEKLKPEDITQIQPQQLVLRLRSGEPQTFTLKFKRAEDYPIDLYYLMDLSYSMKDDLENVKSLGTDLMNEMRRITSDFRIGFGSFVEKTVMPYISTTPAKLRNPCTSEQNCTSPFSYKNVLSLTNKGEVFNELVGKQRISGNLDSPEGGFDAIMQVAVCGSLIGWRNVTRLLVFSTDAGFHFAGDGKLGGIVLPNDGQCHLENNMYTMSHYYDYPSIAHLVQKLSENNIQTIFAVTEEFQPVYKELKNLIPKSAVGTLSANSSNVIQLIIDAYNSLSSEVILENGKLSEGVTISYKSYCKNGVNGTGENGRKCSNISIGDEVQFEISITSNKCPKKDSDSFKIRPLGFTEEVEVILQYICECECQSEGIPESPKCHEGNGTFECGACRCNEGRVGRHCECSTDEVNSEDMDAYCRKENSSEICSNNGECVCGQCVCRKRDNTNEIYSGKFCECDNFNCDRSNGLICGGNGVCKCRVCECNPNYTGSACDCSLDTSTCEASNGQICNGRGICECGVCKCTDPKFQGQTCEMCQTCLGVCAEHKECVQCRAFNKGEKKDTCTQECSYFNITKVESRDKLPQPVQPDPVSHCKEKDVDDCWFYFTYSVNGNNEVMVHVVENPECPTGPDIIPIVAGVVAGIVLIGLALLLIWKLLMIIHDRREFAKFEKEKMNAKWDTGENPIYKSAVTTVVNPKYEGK
Experimental: (§1) Nunc MaxiSorp™ 96-well plates are coated with 200 μL of purified human α3β1, α5β1, and αvβ5 integrins (Chemicon, Temecula, Calif.) at 1 μg/mL in Tween 20™/PBS buffer, pH 7.5 (4° C.). After blocking for two hours with 5% (w/v) BSA (bovine serum albumin) in PBS, pH 7.5, phage samples are incubated with integrins in PBS, pH 7.5, supplemented with 2.5% (w/v) non-fat dry milk. After one hour of incubation, unbound phages are removed and the wells are washed five times with Ca^2+- and Mg^2+-containing PBS, pH 7.5.
(§2) Bound phages are quantified spectrophotometrically at λ=450 nm using monoclonal mouse T7 tail fiber antibody (1:5,000) followed by goat anti-mouse IgG horseradish peroxidase:conjugate (1:5,000) and TMB (3,3′,5,5′-tetramethyl-benzidine) as substrate.

[2] = molecular target: T2, α3β1 integrin receptor (Homo sapiens, UniProt P05556+P26006)
T2 construct: purchased Chemicon, Temecula, Calif
T2 sequence (P26006 33-872 limits assumed): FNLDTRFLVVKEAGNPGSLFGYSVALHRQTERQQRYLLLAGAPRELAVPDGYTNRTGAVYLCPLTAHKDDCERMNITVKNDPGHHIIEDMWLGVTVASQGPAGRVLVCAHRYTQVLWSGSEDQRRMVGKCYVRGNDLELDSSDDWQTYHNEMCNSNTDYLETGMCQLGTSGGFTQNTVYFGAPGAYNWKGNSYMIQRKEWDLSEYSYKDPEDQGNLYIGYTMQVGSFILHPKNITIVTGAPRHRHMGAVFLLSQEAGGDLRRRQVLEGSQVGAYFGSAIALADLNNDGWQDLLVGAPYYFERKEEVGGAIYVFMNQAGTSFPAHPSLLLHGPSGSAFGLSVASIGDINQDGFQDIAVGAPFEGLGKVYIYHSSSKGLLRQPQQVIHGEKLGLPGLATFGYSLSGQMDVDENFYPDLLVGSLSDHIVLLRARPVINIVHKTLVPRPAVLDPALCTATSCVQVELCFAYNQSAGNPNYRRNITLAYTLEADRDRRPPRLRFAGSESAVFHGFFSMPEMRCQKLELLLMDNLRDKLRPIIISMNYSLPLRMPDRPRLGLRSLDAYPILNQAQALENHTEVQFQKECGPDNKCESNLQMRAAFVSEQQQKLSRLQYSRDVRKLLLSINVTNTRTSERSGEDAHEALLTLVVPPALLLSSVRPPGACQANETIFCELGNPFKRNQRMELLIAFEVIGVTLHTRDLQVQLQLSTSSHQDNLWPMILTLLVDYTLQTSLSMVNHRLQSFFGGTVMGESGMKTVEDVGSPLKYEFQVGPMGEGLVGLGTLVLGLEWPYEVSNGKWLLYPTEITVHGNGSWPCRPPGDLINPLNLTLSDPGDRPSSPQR
T2 sequence (P26006 873-1051 partner limits assumed): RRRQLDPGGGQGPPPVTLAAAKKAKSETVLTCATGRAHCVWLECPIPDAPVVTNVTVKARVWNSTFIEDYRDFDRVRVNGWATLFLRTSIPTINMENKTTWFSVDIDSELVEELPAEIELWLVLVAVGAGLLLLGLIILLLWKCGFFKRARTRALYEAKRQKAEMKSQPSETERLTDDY
T2 sequence (P05556 21-798): as the sequence (P05556 21-798) above
Experimental: as §1, §2

[3] = system: αvβ3 integrin receptor

## RYRGDLGRR [α5β1 integrin-specific ligand peptide]
[1]
  binding to surface-immobilized human α5β1 integrin receptor: binds most effectively
[2]
  affinity for α3β1 integrin receptor: displays affinity
[3]
  affinity for αvβ3 integrin receptor: displays affinity
